# Values joined by “and” are separate entries in the source; they are usually repeats but may differ in a detail not shown here. Equal entries are not always repeated.
# Biological target: the molecule itself
# Experiment: SEC
protein,measurement,value
"RMKKKDEGSYDLGKKPILQQAPTNEFYA (peptide, UniProt P34901 175-202, looked up) [syndecan-4 cytoplasmic tail peptide, PIP2- mutant (Y192KK to LQQ)]",stoichiometry N,4 and 6

# — PMC2173870 (The Journal of Cell Biology, 2002)
